According to patent US20260069689A1 (Regeneron, published 2026):

Tests used:
[1] = target: T1, SARS-COV-2 RBD extracellular domain expressed with a C-terminal mouse IgG2a Fc (SARS-CoV-2); test: Biacore SPR, mAb captured on anti-hFc, 25 C
[2] = target: T1, SARS-COV-2 RBD extracellular domain …; test: Biacore SPR, mAb captured on anti-hFc, 37 C

Binder	Kd [1] [pM]	koff [1] [s⁻¹]	kon [1] [M⁻¹ s⁻¹]	t½ [1] [min]	Kd [2] [pM]	koff [2] [s⁻¹]	kon [2] [M⁻¹ s⁻¹]	t½ [2] [min]
mAb14234 (antibody, V domains shown) VH: QVQLVESGGGVVQPGRSLRLSCAASGFTFSSYGIHWVRQAPGKGLEWVAIIWYDGSEKYYADSVKGRFTISRDNSKNTLFLQMNSLEAEDTAVYYCARGPDLLTGYYNYFYYGMDVWGQGTTVTVSS VL: QSVLTQPPSVSGAPGQRVTISCTGSSSNIGIGYDVHWYQQLPGTVPKLLIYGNTNRPSGVPDRFSGSKSGTSASLAITGLQAEDEADYYCQSYDSSLSSYVFGTGTKVTVLG	119	0.000121	1.02e+06	95.2	410	0.000402	980000	28.8
mAb14281 (antibody, V domains shown) VH: QVQLVQSGADVKKPGASVKVSCKTSGYIFTGYYIHWVRQAPGQGLEWMGWINPNSGGTNSAQKFQGRVTMTRDTSISTVYMELSRLRSDDTAVYYCAKSNSFSVLDYNFDYWGQGTLVTVSS VL: SSELTQDPAVSVALGQTVRITCQGDSLRSYYASWYQQKPGQAPVLVIYDKNNRPSGIPDRFSGSSSGNTASLTITGAQAEDEADYYCNSRDSSRNHLVVFGGGTKLTVLG	146	0.000213	1.46e+06	54.3	271	0.000365	1.34e+06	31.7
mAb15160 (antibody, V domains shown) VH: EVQLVESGGGLVQPGGSLRLSCSASGFTFSRYAMYWVRQAPGKGLEYVSAISSDGGSTYDADSVKGRFTISRANSKNTLYLQMSSLRAEDTAVYYCVKGLRELLYYYYGMDVWGQGTTVTVSS VL: DIQMTQSPSSLSASVGDRVTITCRAGQSISSFLNWYQQKPGKAPKLLIYAASSLQSGVPSRFSGSGSGTDFTLTISSLQPEDFATYYCQQSYITPFTFGPGTKVDIKR	40.6	1.05e-05	258000	1100	181	7.9e-05	436000	146
mAb15161 (antibody, V domains shown) VH: EVQLVESGGGLVQPGGSLRLSCAASGFTFSSYEMNWVRQAPGKGLEWVSYISSSGSILYYADSVKGRFTASRDNAKNSLYLQMNSLRAEDTGVYYCARREYQLLRPFEFWGQGTLVTVSS VL: not shown	11.9	1.26e-05	1.06e+06	914	46.9	4.9e-05	1.05e+06	236
mAb14280 (antibody, V domains shown) VH: QVQLVQSGAEVKKPGASVRVSCKASGYTFTGNYIHWVRQAPGQGLEWMAWINPNSGGKNYAQKFQGRVTLTRDTSVNTAYMELSRLRSDDTAMYYCARDVNYNILTGPGGLWGQGTLVTVSS VL: QSALTQPPSASGSPGQSVTISCTGTSSDVGGYNFVSWYQQHPGKAPKLMIYEVSKRPSGVPDRFSGSKSGNTASLTVSGLQAEDEADYYCSSYAGSNNFVFGTGTKVTVLG	123	0.00037	3.02e+06	31.2	264	0.000772	2.92e+06	15
mAb14256 (antibody, V domains shown) VH: QVQLQESGPGLVKPSETLSLTCTVSGGSISSHYWSWIRQPPGKGLEWIGYIYYSGSSNYNPSLKSRVTISVDTSKNQFSLKLNSVTAADTAVYYCARHYDILTGFDWFDPWGQGTLVTVSS VL: QSVLTQPPSVSGAPGQRVTISCTGSSSNIGTHYDVHWYQQLPGTAPKLLIYGNSNRPSGVPDRFSGSKSGTSASLAITGLQAEDEADYYCQSFDNSLTAPYVFGTGTKVTVLG	63.8	0.000181	2.84e+06	63.7	267	0.000473	1.78e+06	24.4
mAb14292 (antibody, V domains shown) VH: EVQLVESGGGLVQPGGSLRLSCVASGFAFSTYEMNWVRQAPGKGLEWVSYISSSGSTIYYADSVKGRLTISRDNVKNSLYLQMNSLRVEDTAIYYCARDAIRNNDILTDPATFDPWGQGTLVTVSS VL: not shown	33600	0.0351	1.04e+06	0.3	34600	0.0644	1.86e+06	0.2
mAb14232 (antibody, V domains shown) VH: QITLKESGPTLVKPTQTLTLTCTFSGFSLSASGVGVGWIRQPPGKALEWLALIYWDDDKRYSPSLKSRLTITKDTSKNQVVLTMTNMDPVDTATYYCAQHKVATIFDYWGQGTLVTVSS VL: QSALTQPPSASGSPGQSVTISCTATSSDVGNYNYVSWYQQHPGKAPKLMIYEVTKRPSGVPDRFSGSKSGNTASLTVSGLQAEDEADYYCSSYAGSWGVFGGGTKLTVLG	878	0.00173	1.97e+06	6.7	893	0.00188	2.1e+06	6.1
mAb14285 (antibody, V domains shown) VH: QVQLVQSGAEVKKPGASVKVSCKASGYTFTGYFIHWVRQAPGQGLEWMGWISPISGGTNYAQKFQGRVTVTRDTSITTAYMELSRLTSDDTAVYHCAREGGTWKGDFDYWGQGTLVTVSS VL: QSALTQPASVSGSPGQSITISCTGTSSDVESYNLVSWYQQHPGKAPKLMIYEGSKRPSGVSNRFSGSKSGNTASLTISGLQAEDEADYYCSSYAGSSTWVFGGGTKLTVLG	86.8	0.000502	5.78e+06	23	231	0.00103	4.45e+06	11.2
mAb15162 (antibody, V domains shown) VH: EVQLVETGGGLIQPGGSLRLSCAASEFIVSRNYMSWVRQAPGKGLEWVSLIYSGGSTYYADSVKGRFTISRDNSKNILYLQMNSLRAEDTAVYYCARDRGGISDYWGQGTLVTVSS VL: DIQMTQSPSSLSASVGDRVTITCQASQDINKYLNWFQQKPGKAPKLLIYDASNLETGVPSRFSGSGSGTDFTFTISSLQPEDIATYYCQQYDNLPRTFGQGTKLEIKR	179	0.00023	1.29e+06	50.2	500	0.000101	200000	115
mAb15158 (antibody, V domains shown) VH: EVQLVESGGGLVQPGGSLRLSCAASGFSFSSNWMSWVRQAPGKGLEWVGNINQDGSEKYYVDSVEGRFTISRDNAKKSLYLQMNSLRAEDTAVYYCARDLGVLWFGDFVDWGQGALVTVSS VL: DIQMTQSPSSLSASVGDRVTITCRASQAISNSLAWYQQKPGKAPKLLLYAASTLESGVPSRFSGSGSGTDYTLTISSLQPEDFATYYCLQYYGSPRTFGQGTKVEIKR	≤ 22.1	≤ 1e-05	453000	1160	170	2.9e-05	171000	398
mAb15156 (antibody, V domains shown) VH: QLQLQESGPGLVKSSETLSLTCTVSASITGSTYYWGWIRQPPGKGLEWIGSIYYSGTTYYKASLKSRVTISVDTSKNQFSLKLTSVTVADTAVYYCVSHLLGNYHKYGMDVWGQGTTVTVSS VL: not shown	36.9	5.22e-05	1.41e+06	221	630	0.000112	178000	103
mAb15159 (antibody, V domains shown) VH: EVQLVESGGGLVQPGGSLRLSCAASGITVSSNYMTWVRQAPGKGLEWVSLIYSGGSTFYADSVRGRFTISRDNSKNTLYLQMNSLRAEDTAVYYCARDLVVYGMDVWGQGTTVTVSS VL: DIQLTQSPSSLSASVGDRVTITCRASQGISSYLAWYQQKPGKAPKLLIYAASTLQSGVPSRFSGSGSGTDFTLTISSLQPEDFATYYCQHLNSDPHTFGQGTKLEIKR	17.2	1.19e-05	691000	971	135	2.99e-05	220000	386
mAb15157 (antibody, V domains shown) VH: EVQLVESGGALVQPGGSLRLSCAASGFPFTIYAMTWVRQAPGKGLEWVSVITGSGDSTYYADSVKGRFTISRDNSKNTLYLQMNSLRAEDTAVYYCVKTGEGFFYYYYGMDVWGQGTTVTVSS VL: QSVLTQPPSVSAAPGQKVTISCSGSSSNIGNSYISWYQQLPGTAPKLLIYVNNKRPSGIPDRFSGSKSGTSATLGITGLQTGDEADYYCGTWDSSLSAGVFGSGTKVTVLG	187	6.67e-05	357000	173	116	0.000107	922000	108
mAb14230 (antibody, V domains shown) VH: EVQLVESGGGLIQPGRSLRLSCAASGFTFDDYAMHWVRQAPGKGLEWVSGISWNSVSIDYADSVKGRFTISRDNAKNSLYLQMTSLTVEDTALYYCAKAFGYETLTGSDYFAYWGPGTLVTVSS VL: EIVLTQSPGTLSLSPGERATLSCRASQTVISTYLAWYQQKPGQSPRLLIYGASSRATGIPDRFSGSGSGTDFTLTISRLEPEDFAVYYCQQYGSSPQLTFGGGTKVEIKR	142	0.000286	2e+06	40.5	268	0.00049	1.82e+06	23.6
mAb14282 (antibody, V domains shown) VH: QVQLVQSGAEVKKPGASVKVSCKASGYIFTDHYMHWVRQAPGQGLEWMGWINPNSGATNYAQNFQGRVTMTRDTSIITVYMELSRLRSDDTAVYYCARDSSPYMIRYTMDVWGQGTTITVSS VL: QSALTQPASVSGSPGQSITISCTGTSSDVGSYNLVSWYQQHPGKAPKLMIYELTKRPSGVSNRFSGSKSGNTASLTISGLQAEDEADYYCSSYRGSVTDVVFGGGTKLTVLG	186	0.000403	2.17e+06	28.7	247	0.000546	2.21e+06	21.1
